Data reported in patent US20190367592A1 (AC IMMUNE, published 2019).

B1: 26C1-C8 (antibody, V domains shown)
VH: EVHLQQSGAELVRSGASVKLSCTASGFNIKDYYMYWVKQRPEQGLEWIGWIDPENGDTEYFPKFQGKATMTADTSSKTAYLQLSSLTSEDTAVYYCNAWRARATNSALDYWGQGTSVTVSS
VL: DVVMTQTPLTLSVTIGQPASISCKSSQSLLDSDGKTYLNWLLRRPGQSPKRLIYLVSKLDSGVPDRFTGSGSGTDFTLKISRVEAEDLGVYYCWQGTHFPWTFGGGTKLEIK
notes: hybridoma supernatant
B2: 61E7-C4 (antibody, V domains shown)
VH: EVQLVESGGDLVKPGGSLKVSCVASGFTFRSYGMSWVRQTPDKRLDWVATISSGGNYTYYPDSVKGRFTISRDNAKNTLYLQMSSLKSEDTAMYYCASSYSGAMDYWGQGTSVTVSS
VL: DTVMTQSPLSLPVSLGDQASISCRSSQSIVHSNGNTYLEWYLQKPGQSPKLLIYTVSNRFSGVPDRFSGSGSGTDFTLKISRVEAEDLGVYYCFQGSHVPWTFGGGTKLEIK
notes: hybridoma supernatant
B3: 19F8-B1 (antibody, V domains shown)
VH: EVQLQQSGPELVKPGASVKMSCKASGYTFTDYYMKWVKQSHGKSLEWIGDLNPNNGGTLYNQKFKGQATLTVDKSSSTAYMQFNSLTSEDSAVYYCARSAGYGDSFAYWGQGTLVTVSA
VL: DVLMTQTPLSLPVSLGDQASISCRSSQNIVHSNGNTYLEWYLQKPGQSPKLLIYKVSNRFSGVPDRFSGSGSGTDFTLKISRVEAEDLGIYFCFQGSHVPPTFGGGTKLEIK
notes: hybridoma supernatant
B4: 24A11-D5 (antibody, V domains shown)
VH: EVQLQQSGPELVKPGASVKMSCKASGYTFTDYYMKWVKQSHGKSLEWIGDLNPKNGGIIYNQKFKGQATLTVDKSSSTAYMQLNSLTSEDSAVFYCARSGGYGDSFAYWGQGTLVTVSA
VL: DVLMTQTPLSLPVSLGDQASISCRSSQNIVHSNGNTYLEWYLQKPGQSPKLLIYKVSNRFSGVPDRFSGSGSGTDFTLKISRVEAEDLGIYFCFQGSHVPPTFGGGTKLEIK
notes: hybridoma supernatant
B5: 49G10-F4 (antibody, V domains shown)
VH: QVQLQQPGAELVQPGASVKLSCKASGYTFTNYWMQWIKQRPGQGLEWIGEIDPSDSYTNYNQNFKDKATLTVDTSSRTAYMQLSSLTSEDSAVYYCTRRWYINSVRYFDVWGTGTTVTVSA
VL: DVLMTQTPLSLSASLGDQASISCRSSQSIVHSNGNIYLEWYLQKPGQSPKLLIYKVSNRFSGVSDRFSGSGSGTDFTLKISRVEAEDLGVYYCFQGAHVPFTFGAGTKLEIK
notes: hybridoma supernatant
B6: 7A11-C12 (antibody, V domains shown)
VH: QIQLVQSGPDLKKPGETVKISCKASGYTFTNYGMNWVKQAPGKGLKWMGWINTNTGEPTYAEEFKGRFAFSLETSASTAYLQIDNLKNEDTATYFCARGTVSFPYWGQGTLVTVSA
VL: DVVMSQTPLSLPVSLGDHASISCRSSQNLVHSDGNTYLHWYLQKPGQSPKLLIYKVSNRFSGVPDRFSGSGSGTDFTLKISRVEAEDLGVYFCSQSTHVIFTFGSGTKLEIK
notes: hybridoma supernatant
B7: hu125B11 HC3 + 125B11 LC4 (antibody, V domains shown)
VH: EVQLVESGGGLVQPGGSLRLSCAASRFIFSNYWMNWVRQAPGKGLEWVAQIRLKSDNYATHYAESVKGRFTISRDDSKNTLYLQMNSLRAEDTAVYYCTGGTTYWGQGTLVTVSS
VL: DIQMTQSPSSLSASVGDRVTITCKASQNVGTAVAWYQQKPGKAPKLLIYSASIRYTGVPSRFSGSGSGTDFTLTISSLQPEDFATYYCQQFRTYPYTFGQGTKVEIK
B8: hu125B11 HC3 + hu113F5-F7 LC1 (antibody, V domains shown)
VH: EVQLVESGGGLVQPGGSLRLSCAASRFIFSNYWMNWVRQAPGKGLEWVAQIRLKSDNYATHYAESVKGRFTISRDDSKNTLYLQMNSLRAEDTAVYYCTGGTTYWGQGTLVTVSS
VL: DIQMTQSPSSLSASVGDRVTITCKASQNVGTAVAWYQQKPGKSPKLLIYSASRRFSGVPSRFSGSGSGTDFTLTISSLQPEDFATYFCQQFSTYPYTFGQGTKVEIK
B9: hu125B11 HC4 + hu113F5-F7 LC3 (antibody, V domains shown)
VH: EVQLVESGGGLVQPGGSLRLSCAASRFIFSNYWMNWVRQAPGKGLEWVAQIRLKSDNYATHYAESVKGRFTISRDNSKNTLYLQMNSLRAEDTAVYYCTGGTTYWGQGTLVTVSS
VL: DIQMTQSPSSLSASVGDRVTITCKASQNVGTAVAWYQQKPGKSPKLLIYSASRRFSGVPSRFSGSGSGTDFTLTISSLQPEDFATYYCQQFSTYPYTFGQGTKVEIK
B10: hu125B11 HC3 + hu113F5-F7 LC4 (antibody, V domains shown)
VH: EVQLVESGGGLVQPGGSLRLSCAASRFIFSNYWMNWVRQAPGKGLEWVAQIRLKSDNYATHYAESVKGRFTISRDDSKNTLYLQMNSLRAEDTAVYYCTGGTTYWGQGTLVTVSS
VL: DIQMTQSPSSLSASVGDRVTITCKASQNVGTAVAWYQQKPGKAPKLLIYSASRRFSGVPSRFSGSGSGTDFTLTISSLQPEDFATYYCQQFSTYPYTFGQGTKVEIK
B11: hu125B11 HC4 + 125B11 LC3 (antibody, V domains shown)
VH: EVQLVESGGGLVQPGGSLRLSCAASRFIFSNYWMNWVRQAPGKGLEWVAQIRLKSDNYATHYAESVKGRFTISRDNSKNTLYLQMNSLRAEDTAVYYCTGGTTYWGQGTLVTVSS
VL: DIQMTQSPSSLSASVGDRVTITCKASQNVGTAVAWYQQKPGKSPKLLIYSASIRYTGVPSRFSGSGSGTDFTLTISSLQPEDFATYYCQQFRTYPYTFGQGTKVEIK
B12: hu125B11 HC5 + 125B11 LC1 (antibody, V domains shown)
VH: EVQLVESGGGLVQPGGSLRLSCAASRFIFSNYYMNWVRQAPGKGLEWVAQIRLKSDNYATHYAESVKGRFTISRDDSKNTVYLQMNSLRAEDTAVYYCTGGTTYWGQGTLVTVSS
VL: DIQMTQSPSSLSASVGDRVTITCKASQNVGTAVAWYQQKPGKSPKLLIYSASIRYTGVPSRFSGSGSGTDFTLTISSLQPEDFATYFCQQFRTYPYTFGQGTKVEIK
B13: hu125B11 HC4 + hu113F5-F7 LC2 (antibody, V domains shown)
VH: EVQLVESGGGLVQPGGSLRLSCAASRFIFSNYWMNWVRQAPGKGLEWVAQIRLKSDNYATHYAESVKGRFTISRDNSKNTLYLQMNSLRAEDTAVYYCTGGTTYWGQGTLVTVSS
VL: DIQMTQSPSSLSASVGDRVTITCKASQNVGTAVAWYQQKPGKAPKLLIYSASRRFSGVPSRFSGSGSGTDFTLTISSLQPEDFATYFCQQFSTYPYTFGQGTKVEIK
B14: hu125B11 HC3 + hu113F5-F7 LC2 (antibody, V domains shown)
VH: EVQLVESGGGLVQPGGSLRLSCAASRFIFSNYWMNWVRQAPGKGLEWVAQIRLKSDNYATHYAESVKGRFTISRDDSKNTLYLQMNSLRAEDTAVYYCTGGTTYWGQGTLVTVSS
VL: DIQMTQSPSSLSASVGDRVTITCKASQNVGTAVAWYQQKPGKAPKLLIYSASRRFSGVPSRFSGSGSGTDFTLTISSLQPEDFATYFCQQFSTYPYTFGQGTKVEIK
B15: hu125B11 HC3 + hu113F5-F7 LC3 (antibody, V domains shown)
VH: EVQLVESGGGLVQPGGSLRLSCAASRFIFSNYWMNWVRQAPGKGLEWVAQIRLKSDNYATHYAESVKGRFTISRDDSKNTLYLQMNSLRAEDTAVYYCTGGTTYWGQGTLVTVSS
VL: DIQMTQSPSSLSASVGDRVTITCKASQNVGTAVAWYQQKPGKSPKLLIYSASRRFSGVPSRFSGSGSGTDFTLTISSLQPEDFATYYCQQFSTYPYTFGQGTKVEIK
B16: hu125B11 HC4 + 125B11 LC1 (antibody, V domains shown)
VH: EVQLVESGGGLVQPGGSLRLSCAASRFIFSNYWMNWVRQAPGKGLEWVAQIRLKSDNYATHYAESVKGRFTISRDNSKNTLYLQMNSLRAEDTAVYYCTGGTTYWGQGTLVTVSS
VL: DIQMTQSPSSLSASVGDRVTITCKASQNVGTAVAWYQQKPGKSPKLLIYSASIRYTGVPSRFSGSGSGTDFTLTISSLQPEDFATYFCQQFRTYPYTFGQGTKVEIK
B17: hu125B11 HC4 + hu113F5-F7 LC1 (antibody, V domains shown)
VH: EVQLVESGGGLVQPGGSLRLSCAASRFIFSNYWMNWVRQAPGKGLEWVAQIRLKSDNYATHYAESVKGRFTISRDNSKNTLYLQMNSLRAEDTAVYYCTGGTTYWGQGTLVTVSS
VL: DIQMTQSPSSLSASVGDRVTITCKASQNVGTAVAWYQQKPGKSPKLLIYSASRRFSGVPSRFSGSGSGTDFTLTISSLQPEDFATYFCQQFSTYPYTFGQGTKVEIK
B18: hu125B11 HC4 + hu113F5-F7 LC4 (antibody, V domains shown)
VH: EVQLVESGGGLVQPGGSLRLSCAASRFIFSNYWMNWVRQAPGKGLEWVAQIRLKSDNYATHYAESVKGRFTISRDNSKNTLYLQMNSLRAEDTAVYYCTGGTTYWGQGTLVTVSS
VL: DIQMTQSPSSLSASVGDRVTITCKASQNVGTAVAWYQQKPGKAPKLLIYSASRRFSGVPSRFSGSGSGTDFTLTISSLQPEDFATYYCQQFSTYPYTFGQGTKVEIK
B19: 63H3-D8 (antibody, V domains shown)
VH: QIQLVQSGPELKKPGETVKISCKASGYTFTSHGMSWVKQAPGKGLKWMGWINTYSGVPTYADDFKGRFAFSLETSASTAYLQINNLKNEDTATYFCARSELSWFAYWGQGTLVTVSA
VL: DIVMTQSPATLSVTPGDRVSLSCRASQSISDYLHWYQQKSHESPRLLIKYASQSISGIPSRFSGSGSGSDFTLSINSVEPEDVGVYYCQNGHSFPYTFGGGTKLEIK
notes: hybridoma supernatant
B20: 64B9-F12 (antibody, V domains shown)
VH: QIQLVQSGPELRKPGETVKISCKASGYTFTTYGMSWVKQAPGEGLKWMGWINTYSGMPTYADDFKGRFAFSLETSARTAYLQINNLKNEDTATYFCARSELSWFAYWGQGTLVTVSA
VL: DIVMTQSPATLSVTPGDRVSLSCRASQSISDYLHWYQQKSHESPRLLIKYASQSISGIPSRFSGSGSGSDFTLSINSVEPEDVGVYYCQNGHNFPYTFGGGTKLEIK
notes: hybridoma supernatant

Columns and labels:
[1] = biological target: T1, full-length human Tau (flTau) (human, UniProt P10636-8 1-441); test: SPR, hybridoma Ab on anti-IgG chip, flTau analyte
T1 construct: range 1-441; bought (SignalChem); also called human Tau-441
T1 sequence (P10636 other isoform, or with tags, fused parts or gaps limits assumed): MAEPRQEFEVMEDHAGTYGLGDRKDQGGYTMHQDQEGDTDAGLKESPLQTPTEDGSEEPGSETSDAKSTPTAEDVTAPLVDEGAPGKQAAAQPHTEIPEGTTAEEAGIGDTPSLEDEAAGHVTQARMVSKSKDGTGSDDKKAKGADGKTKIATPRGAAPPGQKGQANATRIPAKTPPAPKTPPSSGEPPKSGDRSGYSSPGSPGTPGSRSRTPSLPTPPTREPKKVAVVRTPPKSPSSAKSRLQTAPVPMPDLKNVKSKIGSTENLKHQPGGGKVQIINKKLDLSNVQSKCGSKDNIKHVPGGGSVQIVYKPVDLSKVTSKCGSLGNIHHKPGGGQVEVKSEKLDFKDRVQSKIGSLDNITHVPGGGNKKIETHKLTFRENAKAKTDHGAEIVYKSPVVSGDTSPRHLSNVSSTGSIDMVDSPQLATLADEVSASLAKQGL
Procedure: Affinity of non-purified antibodies in serum-free hybridoma supernatants was estimated by surface plasmon resonance using a Biacore T-100 instrument (GE Healthcare, United Kingdom). Antibodies were immobilized onto an anti-IgG biosensor chip, and flTau (SignalChem, Canada) was used as the target analyte. Kinetic analysis was done using a 1:1 Langmuir fit model.
For affinity measurements to flTau, antibodies were measured using SPR on a Biacore instrument, with the KDs determined. Biacore affinity measurements were done by immobilizing antibodies on an anti-IgG chip and using flTau as the target analyte.

[2] = biological target: T2, recombinant human Tau monomer, 2N4R isoform (amino acids 2-441) (human, UniProt P10636-8 2-441); test: SPR screen, hIgG captured, Tau monomer analyte
T2 construct: range 2-441; N-terminal His-tag removed with TEV protease; also called monomeric Tau
T2 sequence (P10636 other isoform, or with tags, fused parts or gaps limits assumed): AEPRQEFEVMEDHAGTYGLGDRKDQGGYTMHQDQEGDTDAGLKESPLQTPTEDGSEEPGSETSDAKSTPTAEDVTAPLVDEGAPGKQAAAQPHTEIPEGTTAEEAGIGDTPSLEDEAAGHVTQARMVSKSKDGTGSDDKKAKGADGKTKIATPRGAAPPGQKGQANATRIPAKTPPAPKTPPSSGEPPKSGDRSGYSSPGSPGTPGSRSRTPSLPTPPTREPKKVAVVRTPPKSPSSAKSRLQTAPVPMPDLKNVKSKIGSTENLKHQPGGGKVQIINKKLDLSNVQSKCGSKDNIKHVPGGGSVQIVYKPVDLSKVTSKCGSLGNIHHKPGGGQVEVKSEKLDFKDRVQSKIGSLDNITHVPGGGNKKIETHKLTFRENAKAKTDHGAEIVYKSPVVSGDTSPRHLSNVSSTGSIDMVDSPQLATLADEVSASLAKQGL
Excerpt: Antibody 125B11-H3 was humanized onto VH3 and Vκ1 consensus frameworks. The heavy chain graft included murine residues at position 78 (Kabat numbering system). The Vκ1 graft included murine residues in framework positions 43 and 87. The light chain of 113F5-F7 was also humanized onto the Vκ1 framework, with additional murine residues at framework positions 43 and 87. Humanized variant heavy chains (125B11) and light chains (125B11 and 113F5-F7) were co-transfected in multiple combinations and purified in 96-well format as described above. Humanized variants were then screened for affinity for human Tau monomer using the Biacore human IgG capture kit, a Series S CM5 chip and a Biacore T200 instrument. Antibodies were diluted to 2 μg/ml and captured for 15 seconds at 10 μl/min. Association and dissociation of 0, 100 and 500 nM human Tau monomer in HBSP was monitored for 180s and 300s respectively at a flow rate of 40 μl/min. A 1:1 binding model was applied to the results (Table 9).

| Binder | Kd [1] | Kd [2] |
| --- | --- | --- |
| B1 | 4.3 nM | – |
| B2 | 3.3 nM | – |
| B3 | 2.9 nM | – |
| B4 | 2 nM | – |
| B5 | 1 nM | – |
| B6 | 0.5 nM | – |
| B7 | – | 20 nM |
| B8 | – | 54 nM |
| B9 | – | 47 nM |
| B10 | – | 65 nM |
| B11 | – | 15 nM |
| B12 | – | 85 nM |
| B13 | – | 47 nM |
| B14 | – | 55 nM |
| B15 | – | 54 nM |
| B16 | – | 15 nM |
| B17 | – | 44 nM |
| B18 | – | 51 nM |
| B19 | 0.5 nM | – |
| B20 | 2 nM | – |
